Article PMC9410875, “FOXL2 and FOXA1 cooperatively assemble on the TP53 promoter in alternative dimer configurations”
Numbering of substitutions follows the chain as printed.

How the values were obtained:
[1] = target: T1, FOXA1-DBD (UniProt P55317 168-264); test: X-ray crystallography; 2:1, 2.1 A; Mg2+ at dimer interface; ITC: 20 mM HEPES pH 7.5, 150 mM NaCl, 10 mM MgCl2, 298 K. EMSA: 2.5 uM DNA, 20 mM HEPES pH 7.5, 50 mM KCl, 10 mM MgCl2, 1 mM DTT, 10% glycerol, on ice 30 min; FOXA1 EMSA: 20 mM Tris-HCl pH 8.0, 0.1 mg/ml BSA, 50 uM ZnCl2, 100 mM KCl, 2 mM beta-mercaptoethanol, 10% glycerol (50 mM EDTA for Mg2+ depletion); conditions: protein: recombinant; tags: GST tag cleaved by TEV; chain copies: 2; blunt
T1 sequence: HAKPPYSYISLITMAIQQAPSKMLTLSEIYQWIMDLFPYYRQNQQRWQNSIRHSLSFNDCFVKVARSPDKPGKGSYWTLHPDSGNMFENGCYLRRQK

[2] = target: T2, FOXL2-DBD (Homo sapiens, UniProt P58012 52-148); test: ITC; 2:1 stoichiometry, biphasic; Kd values not in the text; ITC: 20 mM HEPES pH 7.5, 150 mM NaCl, 10 mM MgCl2, 298 K. EMSA: 2.5 uM DNA, 20 mM HEPES pH 7.5, 50 mM KCl, 10 mM MgCl2, 1 mM DTT, 10% glycerol, on ice 30 min; FOXA1 EMSA: 20 mM Tris-HCl pH 8.0, 0.1 mg/ml BSA, 50 uM ZnCl2, 100 mM KCl, 2 mM beta-mercaptoethanol, 10% glycerol (50 mM EDTA for Mg2+ depletion); conditions: protein: recombinant; tags: GST tag cleaved by TEV; blunt
T2 sequence: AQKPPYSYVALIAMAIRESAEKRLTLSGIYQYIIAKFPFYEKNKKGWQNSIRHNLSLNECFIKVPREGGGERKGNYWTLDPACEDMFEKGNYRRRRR

[3] = target: T3, FOXL2 full-length (UniProt P58012 1-376); test: EMSA; 1 or 10 ug protein; ITC: 20 mM HEPES pH 7.5, 150 mM NaCl, 10 mM MgCl2, 298 K. EMSA: 2.5 uM DNA, 20 mM HEPES pH 7.5, 50 mM KCl, 10 mM MgCl2, 1 mM DTT, 10% glycerol, on ice 30 min; FOXA1 EMSA: 20 mM Tris-HCl pH 8.0, 0.1 mg/ml BSA, 50 uM ZnCl2, 100 mM KCl, 2 mM beta-mercaptoethanol, 10% glycerol (50 mM EDTA for Mg2+ depletion); conditions: protein: recombinant; label: 32P
T3 sequence: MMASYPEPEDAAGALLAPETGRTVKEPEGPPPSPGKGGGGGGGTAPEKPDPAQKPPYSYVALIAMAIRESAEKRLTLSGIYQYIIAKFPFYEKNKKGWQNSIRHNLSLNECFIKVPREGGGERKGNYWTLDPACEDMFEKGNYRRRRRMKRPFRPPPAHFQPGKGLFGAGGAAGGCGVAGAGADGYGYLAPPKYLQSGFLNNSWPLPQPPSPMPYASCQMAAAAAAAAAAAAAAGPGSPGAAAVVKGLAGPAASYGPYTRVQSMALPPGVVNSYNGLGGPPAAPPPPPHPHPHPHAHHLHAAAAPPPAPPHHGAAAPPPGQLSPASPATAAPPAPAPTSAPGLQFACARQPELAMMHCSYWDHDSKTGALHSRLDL

[4] = target: T2, FOXL2-DBD; test: ITC; 1:1 stoichiometry; 10 mM MgCl2, 298 K; ITC: 20 mM HEPES pH 7.5, 150 mM NaCl, 10 mM MgCl2, 298 K. EMSA: 2.5 uM DNA, 20 mM HEPES pH 7.5, 50 mM KCl, 10 mM MgCl2, 1 mM DTT, 10% glycerol, on ice 30 min; FOXA1 EMSA: 20 mM Tris-HCl pH 8.0, 0.1 mg/ml BSA, 50 uM ZnCl2, 100 mM KCl, 2 mM beta-mercaptoethanol, 10% glycerol (50 mM EDTA for Mg2+ depletion); conditions: protein: recombinant; tags: GST tag cleaved by TEV; blunt
[5] = target: T4, FOXA1-DBD S177A (UniProt P55317 168-264, S177A); test: EMSA; little change vs wild type; ITC: 20 mM HEPES pH 7.5, 150 mM NaCl, 10 mM MgCl2, 298 K. EMSA: 2.5 uM DNA, 20 mM HEPES pH 7.5, 50 mM KCl, 10 mM MgCl2, 1 mM DTT, 10% glycerol, on ice 30 min; FOXA1 EMSA: 20 mM Tris-HCl pH 8.0, 0.1 mg/ml BSA, 50 uM ZnCl2, 100 mM KCl, 2 mM beta-mercaptoethanol, 10% glycerol (50 mM EDTA for Mg2+ depletion); conditions: protein: recombinant; label: 5' Cy3 on strand 1 (legends say Cy5); blunt
T4 sequence: T1 sequence with S10A

[6] = target: T2, FOXL2-DBD; test: ITC; 1:1 one-site curve; biphasic pattern lost; ITC: 20 mM HEPES pH 7.5, 150 mM NaCl, 10 mM MgCl2, 298 K. EMSA: 2.5 uM DNA, 20 mM HEPES pH 7.5, 50 mM KCl, 10 mM MgCl2, 1 mM DTT, 10% glycerol, on ice 30 min; FOXA1 EMSA: 20 mM Tris-HCl pH 8.0, 0.1 mg/ml BSA, 50 uM ZnCl2, 100 mM KCl, 2 mM beta-mercaptoethanol, 10% glycerol (50 mM EDTA for Mg2+ depletion); conditions: protein: recombinant; tags: GST tag cleaved by TEV; blunt

B1: p53-DNA 16 bp (dsDNA)
DNA 1: AAATATTTATTATCGA
DNA 2: TCGATAATAAATATTT
- binding result [1]: binds
- binding result [2]: binds

B2: TP53-DNA, 32P probe (dsDNA)
DNA 1: CCCTCATTCAAAAAATATTTATTATCGAGCTCTTACT
DNA 2: AGTAAGAGCTCGATAATAAATATTTTTTGAATGAGGG
- binding result [3]: binds

B3: DBE2 DNA 16 bp (dsDNA)
DNA 1: CAAAATGTAAACAAGT
DNA 2: ACTTGTTTACATTTTG
- Kd [4]: 790 ± 100 nM

B4: p53-DNA 26 bp (S0) (dsDNA)
DNA 1: TCAAAAAATATTTATTATCGAGCTCT
DNA 2: AGAGCTCGATAATAAATATTTTTTGA
- binding result [5]: binds

B5: p53 mut2 16 bp (ITC) (dsDNA)
DNA 1: AAATATTTATCCCTCA
DNA 2: TGAGGGATAAATATTT
- binding result [6]: binds
